One assay addresses HLA-A*02:02. The assay is described as follows: IEDB peptide-MHC binding, purified MHC/competitive/radioactivity; filed as Kd, often an IC50 or EC50 that approximates it; ≥ and ≤ were set here for values at or beyond the usual limits of such assays.
In the next assay the target is HLA-A*02:03. The description is as above.
Another assay has as its target HLA-A*02:06. The description is as above.
The target in another assay is HLA-A*24:02. Described as above.
A further assay deals with HLA-A*26:01. Described as above.
The target in a further assay is HLA-A*23:01. The assay is described as above.
The target of the next assay is HLA-A*03:01. The assay can be described thus: IEDB peptide-MHC binding, purified MHC/direct/fluorescence; filed as Kd, often an IC50 or EC50 that approximates it; ≥ and ≤ were set here for values at or beyond the usual limits of such assays. As to conditions: source organism: Corynebacterium jeikeium.
For the next assay, the target named is HLA-A*02:01. The assay is described as above. As to conditions: source organism: Influenza A virus (A/turkey/Canada-Ontario/NS-01839-1/05(H3)).
For the next assay, the target named is HLA-A*01:01. The assay can be described thus: IEDB peptide-MHC binding, purified MHC/competitive/radioactivity; filed as Kd, often an IC50 or EC50 that approximates it; ≥ and ≤ were set here for values at or beyond the usual limits of such assays. As to conditions: source organism: Dengue virus 1 Brazil/97-11/1997.
Where [1] appears, read: source organism: SARS coronavirus Tor2.
The mark [2] stands for this setting: source organism: Dengue virus 4 Philippines/H241/1956.
[3] abbreviates: source organism: Dengue virus 2 Jamaica/1409/1983.
Where [4] appears, read: source organism: Vaccinia virus WR.
Where [5] appears, read: source organism: Dengue virus 1 Brazil/97-11/1997.
The mark [6] stands for this setting: source organism: Dengue virus 3 Martinique/1243/1999.
[7] abbreviates: source organism: Mammarenavirus whitewaterense.

pKd: −log10 of the molar value.

Turning to LMSFTILCLV, the pKd with HLA-A*02:02 (setting [1]) is 9.47; with HLA-A*02:03 (setting [1]), 7.04; with HLA-A*02:06 (setting [1]), 7.40.
As to TWVTYGTCTT, in the assay with HLA-A*24:02 (source organism: Dengue virus 2 Peru/IQT2913/1996), the pKd was no more than 4.15.
On to ISYKDREWCF, for which the pKd with HLA-A*24:02 (setting [2]) is 5.99.
As to DTITYKCPL, the pKd with HLA-A*26:01 (setting [3]) is 5.47.
As for QLYTISSESL, the negative-log Kd (pKd) with HLA-A*02:02 (setting [4]) was 7.14; with HLA-A*02:03 (setting [4]) it was 6.61; in the assay with HLA-A*02:06 (setting [4]) it was 5.32.
For the sequence VFGTAYGVLF, the pKd is 7.13 with HLA-A*24:02 (setting [5]) and 7.46 with HLA-A*23:01 (setting [5]).
In the case of LINLVQYRI, the pKd with HLA-A*02:02 (setting [4]) is 6.51; with HLA-A*02:03 (setting [4]) it was 6.23; with HLA-A*02:06 (setting [4]) it was 5.27.
The corresponding values for YVEHDPRLV are 5.93, 6.15 and no more than 4.65.
As to SAEVERLMEL, the pKd with HLA-A*02:02 (setting [4]) is 5.89; with HLA-A*02:03 (setting [4]), 5.60; in the assay with HLA-A*02:06 (setting [4]), 5.90.
For AIKQYGDIDL the same measures were no more than 4.63, no more than 4.33 and no more than 4.16.
For PTRTWKVLSI the same measures were no more than 4.38, 4.82 and no more than 4.16.
For the sequence LWMASVEPHW, the results for the pKd in the assay with HLA-A*24:02 (setting [5]) and in the assay with HLA-A*23:01 (setting [5]) were 6.64 and 6.89, respectively.
For the sequence PYLGKREDQW, the pKd in the assay with HLA-A*24:02 (setting [3]) is 5.53; in the assay with HLA-A*23:01 (setting [3]), 5.86.
Take IISYIILFIL: the pKd was 7.18 with HLA-A*02:02 (setting [4]), 6.31 in the assay with HLA-A*02:03 (setting [4]) and 5.41 with HLA-A*02:06 (setting [4]).
In the case of QILDNAAKYV, the pKd with HLA-A*02:02 (setting [4]) is 5.41; with HLA-A*02:03 (setting [4]) it was 5.41; in the assay with HLA-A*02:06 (setting [4]), 4.94.
The sequence FMWAHPGKK gave a pKd with HLA-A*03:01 of 7.41.
Turning to DTVTYECPL, in the assay with HLA-A*26:01 (setting [2]), the negative logarithm of the Kd (pKd) is 5.21.
For TLFIDRGSI, the pKd in the assay with HLA-A*02:02 (setting [4]) is 5.68; with HLA-A*02:03 (setting [4]), 6.10; in the assay with HLA-A*02:06 (setting [4]) it was no more than 4.11.
The corresponding values for ALINLVQYRI are 8.08, 7.09 and 6.38.
Consider ILDGKNCTL, for which the pKd with HLA-A*02:01 was 7.02.
As to EFFLIVLLI, the pKd in the assay with HLA-A*24:02 (setting [3]) is 5.52.
Consider VLALYSPPL, for which the results for the pKd with HLA-A*02:02 (setting [4]), in the assay with HLA-A*02:03 (setting [4]) and with HLA-A*02:06 (setting [4]) were 9.65, 9.39 and 7.49, respectively.
The corresponding values for YLGPRVCWL are 9.05, 8.47 and 7.63.
Turning to FLLVTLAIL, the negative-log Kd (pKd) is 9.19 in the assay with HLA-A*02:02 (setting [1]), 9.01 in the assay with HLA-A*02:03 (setting [1]) and 9.32 with HLA-A*02:06 (setting [1]).
On to KYTDRKWCF, for which the pKd is 6.86 with HLA-A*24:02 (setting [6]) and 6.74 with HLA-A*23:01 (setting [6]).
For ALEPRKEIDV, the values for the pKd with HLA-A*02:02 (setting [4]), with HLA-A*02:03 (setting [4]) and with HLA-A*02:06 (setting [4]) were 5.08, 4.95 and no more than 4.20, respectively.
Regarding LTFIKTTLSL, the pKd with HLA-A*26:01 (setting [5]) is 4.94.
For TTENAAYQVL, the figures for the pKd with HLA-A*02:02 (setting [4]), with HLA-A*02:03 (setting [4]) and with HLA-A*02:06 (setting [4]) were no more than 4.53, no more than 4.15 and no more than 4.16, respectively.
ETEPPFGESY: the values for the pKd with HLA-A*26:01 (setting [5]) and with HLA-A*01:01 were 6.87 and 8.28, respectively.
Take KTEHCDDFMT: the pKd with HLA-A*02:02 (setting [4]) was 5.11; in the assay with HLA-A*02:03 (setting [4]), no more than 4.42; with HLA-A*02:06 (setting [4]), 4.94.
FICNLLLLFV: the pKd with HLA-A*02:02 (setting [1]) was 8.61; with HLA-A*02:03 (setting [1]), 7.84; in the assay with HLA-A*02:06 (setting [1]), 8.40.
As to NTNQGNILM, the pKd with HLA-A*02:02 (setting [4]) is 5.77; in the assay with HLA-A*02:03 (setting [4]), 5.94; with HLA-A*02:06 (setting [4]) it was 5.23.
For the sequence YIFFASFYYI, the pKd in the assay with HLA-A*02:02 (setting [1]) is 9.34; in the assay with HLA-A*02:03 (setting [1]), 7.22; with HLA-A*02:06 (setting [1]), 9.10.
For LDFAKVASV, the pKd is 7.21 with HLA-A*02:02 (setting [7]), 6.34 in the assay with HLA-A*02:03 (setting [7]) and 4.97 with HLA-A*02:06 (setting [7]).
For the sequence LMANLAPHLL, the figures for the pKd in the assay with HLA-A*02:02 (setting [1]), with HLA-A*02:03 (setting [1]) and with HLA-A*02:06 (setting [1]) were 9.64, 8.84 and 6.94, respectively.
In the case of GMSIVCIVAA, the pKd is 6.79 in the assay with HLA-A*02:02 (setting [4]), 6.64 in the assay with HLA-A*02:03 (setting [4]) and 5.91 with HLA-A*02:06 (setting [4]).
Take AYSLTLQGL: the pKd with HLA-A*24:02 (source organism: Homo sapiens) is 7.35.
With LVIGFLFLA, the pKd was 8.13 with HLA-A*02:02 (setting [1]), 7.71 with HLA-A*02:03 (setting [1]) and no less than 10.00 with HLA-A*02:06 (setting [1]).
With NLYISDYKML, the results for the pKd with HLA-A*02:02 (setting [4]), with HLA-A*02:03 (setting [4]) and with HLA-A*02:06 (setting [4]) were 5.90, 5.74 and no more than 4.44, respectively.
For ALVSDCASTI the same measures were 7.03, 7.28 and 6.62.

For the origin of these results see the Immune Epitope Database (IEDB).
